Test results as given in the supplement of paper PMC12636428.

test system: Saccharomyces cerevisiae; test: transcriptional activation domain activity (GFP:mCherry ratio, weighted mean of sorted bins, harmonized to initial dataset scale) (arbitrary fluorescence ratio units); higher = stronger transcriptional activation; conditions: beta-estradiol 1 µM; induction time 4 h
Outline: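 Sorting into 8 bins by GFP:mCherry ratio followed a 4-hour hold at 30 °C after cultures were diluted 1:5 into SC with 1 uM beta-estradiol. The yeast diploids carried a GFP reporter and had barcoded protein tiles, fused to an estradiol-inducible synthetic transcription factor, integrated at URA3. Barcodes were then sequenced, and tiles with under 50 reads were removed. Activation activity is the read-weighted mean of bin median fluorescence, averaged across barcodes and linearly mapped onto the initial dataset scale.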

| Sequence | transcriptional activation domain activity |
| --- | --- |
| KSVVLERKLAIGQCRHLFTVNDNWLVSVWNDFHVGIVVRNMVFFLCRLVFDFM | 42700 |
| ESSLSDKAEPKKEDSGKMAEAPKPAPEPKKEPKKEESKPAAKQESKKEVEEKA | 35200 |
| GTRAPAVHRDQRGPVDSQERAGEDVVRRERSVGQGRRAVRGARLVYAGAAALE | 51500 |
| MELFFGLSFFLAYVPGCYSFLLTILIPLLCYYIFTRYLRCLVLHGLGFFFSLF | 77000 |
| NNLNITGYEWISSELRDDALLSAVTLQGHHLGHTQPQEISLEENSNVVSGEEH | 59600 |
| SMRDSASDQETSWELQMFKTENVPESTTLPAVDNNNLFDAVASPLADPLCDDI | 53300 |
| LVVFVFLILVVFVFLILVVFVFLILLILAFFVFLILLALLIFLILLVFLVFLV | 30600 |
| MVYCISFCLALFESLLYSIVADTNILIHYFLFFLLLFCQFVYFLNNTFFIFLS | 51800 |
| NGELPHENGGRETKVKFEGTAAPKESRIGQMRQHLLLLAESQHRFIRHCGTHG | 29600 |
| LIPIVVLNMYSLLMLLFIRGWFSYLIAVVSISGVLVLHMLYFLLQWRLKYILW | 65600 |
| KKAAAALNGEAADGEATAEGEGAPKREPRAKKPRTPRPRRAPGEEPAGEPSKN | 44900 |
| TVGVLILWCWLRLIQKALEKLHVKQIKTGHYGSPPLKNMLLPWLKQTFIFVLA | 69100 |
| LRSVGRGGNSLVVIGFFVMNGVGIVLERVWKRICGRSVRGIWGWIWTFSWLAL | 79900 |
| MQGWVHALFSFFFNLIVVALLSCLCFIHLSSSYYNLCPVLYLTTPCLFIRFYI | 62000 |
| DKQLDYEFIDKSGIIPSDNQSHPRISNIHDNAIDMVTLKNGEEVAISWYDISH | 59800 |
| MTHILGYIHRSCYFLFLRSFLNFDISCCWITLSWLLCRSILYYCRPMVKILSS | 66300 |
| MDEVGLSSMRYYHFSIFNVLIVFLLGTTFLNTIIDLVYTPTSILTLLANSLPQ | 51800 |
| LILILLIWRYCWYDGVIVNKIRAIGNDFCIWNPRMGEPLWTEYSHLVAKCLLF | 62700 |
| EEKKEDDWQVLDGKEKAAGGAGEGDAAEGAEGGATTEGEKKDDAGGAPAGEGA | < 6570 |
| PFTELFRRFLFSNIRFTSKVTIISYIGTYYAIGAAWIMTTANYFAIGWFNGYL | 46500 |
| KDLKDGTRAPGDESERIVVEELDMERVALDRTLGRLWRSWKKRIRSPTEPSFG | 34300 |

| Sequence | transcriptional activation domain activity |
| --- | --- |
| GMKNIDEGPETENDATENSLTTILNDLEGPLEDFSENFIDDILGSPSAFFDTA | 151000 |
| KNNLWYLPLYLFYLSRVTPAATVVPVFLFFFIFFYFFIFIFYLFLFYLSFSIF | 49900 |
| TSLVVENGNGNGSGRGRKKRGRDGGGGGRGGGGGRGGGGEEDGLVGGAGAGGG | 25000 |
| ASSSAPAAEPEAAAEEAPKKEEAAPAKEEPAAATTATAAAAGESSEAPKEAAP | 33900 |
| NQAQPSTSGGFGQPSAFGSATPSSSAFGGGAASTPTQPSAFGASTTPAAAPTA | 8250 |
| MGLKGLLRSTIYVSSLVWLGWVVNLGQFLLFPFYSVTLKLSYNVNACIISVLV | 68500 |
| LRLAVKNMSEDLPPLVPDIVNLVKRLKWSKAACCYYVLVSNALSLVVFLIDTY | 54900 |
| EVKAESKPESKVEPKTEAKPEPKAEPKSEPKVEPKKSESSKKNKKKKAKKAAA | 33700 |
| PNVFGLMLFELGLGFWIKTDYYYMLICLSVSSLVFRAEISLLSGLLVLQDIFL | 66400 |
| EQEVQEERARTGTKGRKRALDDDAAKEEKEEKKEKPEKKEKATKSGKATSAAS | 20800 |
| NIDPAAIDDKWLSEFINNSDPKSTFKINFNHFNDIGFIYSPPSSRSSIPNKSP | 101000 |
| FPTVLVYYLLFAIGRLCTIMLYAALETCLAFMNHFPLFAMMLRLKDPARLPGG | 61800 |
| SVRHWELRVRAKYGRVLCRFLAQIEFDPFLLSDSSKRAILTVLRAVADIMVEC | 42400 |
| GKRRFLNGFLSCLLPTCGISDPLLRYAACFTVIRCCFRSNVLVPAMMRALLET | 45100 |
| IHVESRLPEMRATLEPKRYVHVARFFSHLIIYFRLLHRPLPASTCNSMLRHYV | 47400 |
| QKRGLETHHRRSGFWAALRRAEKGKSWVFLFFFFLFFPFFSFFYFFLLFLFLF | 21800 |
| IFLHIFLLVLLRLLFLLLSLFYFLLLPHFFYNQPSLLLRLFLNFFQLSLSILL | 34100 |
| DSEEERMRRRRAKSRDPERERERKASRSPEKKPARSKSRLGRLAAGAAAAGAA | 50300 |
| QCIFVLLVLLMRRHLAKMHLCLKQEIDWRELDDDRDTVTWVVAAVWQRFIDLK | 61000 |
| RAKADAILRELQDTFFPSAAFRAWLTIVTKLIPLSCAVEARRFRPGLDYTLAT | 77700 |
| MADQPQGRKPNNRRPRHRGRGGGAGGGGNGGGNGGGEDGGNEGGRGGRRGGRG | 33900 |

| Sequence | transcriptional activation domain activity |
| --- | --- |
| GKKDQEALKEGESSSESASASASKSSSSTKSSKGSKSSSAAAAEASDDGKPKK | 38600 |
| AVIRKIRLLVCLAREQALRGYALEMVIHGLKPFIVDSYCSQDTIGVVQYLLHR | 46700 |
| SNFASKVNTQLNLLQHSSSNSNFLDASPYDFNKIFMNNFENYDYETDEGYAED | 63600 |
| MLIFVLIVCISLGLAMSFDSLSLHLQLHRLFCIFCVIFILFAHSFSVGLSCYI | 72000 |
| EMLSASKGRKKARMEEEDEDEWAGDGASKAKAKGKKAAKKPAKARAPKGKAAA | 37400 |
| GVLRLFQICLPCFAAVDFVQGFVRYLYHIPNFNGVYETKMWVWVGLIICLIFK | 53900 |
| RRGEGRRGEGRRGEGRRGEGRRGEGRRGEGRGGEGRGGRGGRGRGSSGTGTGS | 28000 |
| KASLGTGDAGKATTKSASAAVKSKAAAKSAKASDSKGGGEDEEEDGGAPKKKK | 18900 |
| AASAASEPAPKKRGRPARAKEEVVAAEPEPAVEQPKKGRGRGRKAAEPEPVAV | 18700 |
| AAPVVAKKDDKKDKKKEEKKGEKEEKKPADEKKGGDKPKKEKKKAEKKPAAAP | 22200 |
| RSESGSPARRKKKRSSRDSEDSAGESSDSDAGARRKSRKGKDSRRDRKSKKDK | 37600 |
| LSLWFLILGALSTTSSFFNIFILQWGVIRCCSVIGPGPCTESILGITQLAVQF | 51100 |
| IGVLHQVFFYKNLIWTFALLLFQIFCESNATYLFDYSLVLLFNLIFTSLPVIM | 53200 |
| MGNVQRWAVAIKNVIAVLVVCLRFITDTFIIATSEYPRGGFLVLLHIRMLFML | 81400 |
| GHGTHCSGTVAGKKYGVAKKASVYAVKVLRSNGSGTMSDVVKGVEYAAESHIK | 7670 |
| MIIVFVFFSLFFFLPFLFPLAFFFLFLFPFFLPSYFPSYSLRCSYEGRPSFFF | 47100 |
| PLPPSSPHWLVWIHAQDVVTMRMPSRIRPLLQELLEVIISVIQPSLHSAPQSG | 49500 |
| MSTAGHSRQPDHATVPARSFGGCSTCRRRHIKCDEGRPSCSACRDSGLACGGY | 53000 |
| MRIRYEMSWGFLLSFLLSNGRRKIDHGTSSLRMTLGFLIAHRVYMMIILNFYT | 47200 |
| RCGILLGSKNDGEGVDFVRVRGERIERGSSASIEEGIGEMGRSRPVRFGGGEE | 21500 |
| ILVHCIRLWTGFLVACFACLILLICLGACNLEMGIVVWSFCLISAGLHSVAVG | 16500 |

| Sequence | transcriptional activation domain activity |
| --- | --- |
| VVENHKREVQYARYHCLKSWRLTLDVCLKRAFHLVPTVGRHELLISMLQAIIG | 37300 |
| AFLLFLLYLTFFCWVCFATSATWVWSEILSDNQYTESFMPINDVLLAVLSGII | 53100 |
| IIRARIFSYLYYGVKKFTFLFPINTVITNMAATLLCAVLVIYCTLTILPMIYY | 62200 |
| MDRQQNGSKRTESVRQPVSCEPCRRRKIKCSRSHPPCDTCRRRRCPDSCVYKS | 43700 |
| NLLSKELLMPAVSELNEYLDLFKNNFLPHFPIIHPSLLDLDLDSLQRYTNEDG | 48900 |
| TAGAATNNKRNRLKVNGKVFTRLDVIGRGGSSRVYRVMAENSKIFALKRVSLD | 35800 |
| LTHEPSKPPRRVPYTTLLHTVPLLIILTVLSAVVCYVHILLLRVFVKPVVIGT | 46600 |
| YGFGGFLSVPLLFFIAFEFPRLHSLLYQLYLFVCVWSWAYYSTIIMFSCHFYP | 57500 |
| VPGEVTDAEANGEVKAEDADGAEKTKPKKKKKSKAAKAKAKAEGAVEGATAAV | 52900 |
| CCMVWGRRWLIVLFPIFCLITVFVFKILEVFTGAFSWVENVRFLVVYLSCILA | 34800 |
| GKADKKETANGKSTDSKTAGGNANSTARKRKTSNASVQDQKAAKATTTAASRK | 27600 |
| TLTQRLSGSMIYIWCSGGVVFAIVLALQVLVLFALLNVITCLEGHMLSIHGWP | 39900 |
| MLLASGCWIQSTYGLFYKCLYFFYLAIFFDHFTFSLNNFLITQCRYPIISLFI | 78000 |
| SSAAAGSSGNASRAAMDVDGEVDADADENRRRSTRASAGRKKAGSAVKKAGTG | < 6570 |
| PAYKLLVAAIWSLEIVDQAFIGHCVYYYTISNYMSPQVLLFGDVIWTLIIQLV | 43000 |
| AAAAKPASGAKTGGKGKGAKSKKSKATVESEDEGEGADGAPAKKKTKKGKTSD | 44200 |
| DQPLNEILGFLLSWLLMFDHFNEITFKLKQEYTTQLKDGDLISLLLPVLFNIL | 41100 |
| LTDIQRASKLFRVMQDFRYLRLLVHRITLWIDDQHCASLGTNIYYTFLMRGRF | 53200 |
| LLYCNQIYLICPYVVNNKVQRQVSPRDMLIVLEAALKITSIYKILTYVYFENI | 58700 |
| KEESGAKTPQSPASKSADDKNATREKEGAGSPDAAKGKGNEEVQTESGRDDRK | 28400 |
